Reference: publication PMC3814720, “Pro-inflammatory cytokines can act as intracellular modulators of commensal bacterial virulence”

Target: TNF-α (human, UniProt P01375 77-233)
Experiment: EMSA; 5-20 uM TNF-α
Settings: chain copies: 3; label: 32P 5'-end; blunt

Chain of TNF-α (P01375 77-233): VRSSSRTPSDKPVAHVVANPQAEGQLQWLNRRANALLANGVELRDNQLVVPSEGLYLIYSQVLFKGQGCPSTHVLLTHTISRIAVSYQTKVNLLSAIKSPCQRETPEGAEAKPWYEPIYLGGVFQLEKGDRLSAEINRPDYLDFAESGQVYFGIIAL

B1: app internal region (dsDNA)
DNA 1: GTTTTTTACCAACAGGAGGCTCATTTGGCGACAGTGGCTCACCAATGTTTATCTATGATGCCCAAAAGCAAAAGTG
DNA 2: CACTTTTGCTTTTGGGCATCATAGATAAACATTGGTGAGCCACTGTCGCCAAATGAGCCTCCTGTTGGTAAAAAAC
**Q.** Does B1 bind?
**A.** Result: no binding
